Data reported in PMC3498625.

Target: Wza from E. coli K30, purified DDM-solubilised octameric complex (E. coli K30)
Assay: cryo-EM structure

Wza from E. coli K30, purified DDM-solubilised octameric complex (natural protein)
stoichiometry N: 8
